# Experimental data published in patent US20240002531A1 (ONO PHARMACEUTICAL, published 2024).
# T1: HER2 peptide p603-622 (amino acids 603 to 622 of human HER2) (human)
# T1 construct: Synthetic peptide; also called wild-type HER2 peptide
# T1 peptide: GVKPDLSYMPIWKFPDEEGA
# T2: HER2 peptide p611-618 (human)
# T2 peptide: MPIWKFPD
# T3: HER2 peptide p609-621 (human)
# T3 peptide: SYMPIWKFPDEEG
# T4: HER2 peptide p610-621 (human)
# T4 peptide: YMPIWKFPDEEG
# T5: HER2 peptide p611-621 (human)
# T5 peptide: MPIWKFPDEEG
# T6: HER2 peptide p612-619 (human)
# T6 peptide: PIWKFPDE
# T7: HER2 peptide p614-620 (human)
# T7 peptide: WKFPDEE
# T8: HER2 peptide p610-618 (human)
# T8 peptide: YMPIWKFPD
# T9: HER2 peptide p609-622 (human)
# T9 peptide: SYMPIWKFPDEEGA
# T10: HER2 peptide p611-620 (human)
# T10 peptide: MPIWKFPDEE
# T11: HER2 peptide p613-619 (human)
# T11 peptide: IWKFPDE
# T12: HER2 peptide p609-618 (human)
# T12 peptide: SYMPIWKFPD
# T13: HER2 peptide p610-619 (human)
# T13 peptide: YMPIWKFPDE
# T14: HER2 peptide p611-622 (human)
# T14 peptide: MPIWKFPDEEGA
# T15: HER2 peptide p610-620 (human)
# T15 peptide: YMPIWKFPDEE
# T16: HER2 peptide p612-620 (human)
# T16 peptide: PIWKFPDEE
# T17: HER2 peptide p613-620 (human)
# T17 peptide: IWKFPDEE
# T18: HER2 peptide p609-619 (human)
# T18 peptide: SYMPIWKFPDE
# T19: D607A peptide (HER2 603-622 with D607A) (human)
# T19 peptide: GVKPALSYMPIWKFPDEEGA
# T20: F616A peptide (HER2 603-622 with F616A) (human)
# T20 peptide: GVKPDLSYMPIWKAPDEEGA
# T21: K615A peptide (HER2 603-622 with K615A) (human)
# T21 peptide: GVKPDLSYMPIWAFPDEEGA
# T22: M611A peptide (HER2 603-622 with M611A) (human)
# T22 peptide: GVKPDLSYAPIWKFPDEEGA
# T23: A622G peptide (HER2 603-622 with A622G) (human)
# T23 peptide: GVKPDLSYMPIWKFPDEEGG
# T24: W614A peptide (HER2 603-622 with W614A) (human)
# T24 peptide: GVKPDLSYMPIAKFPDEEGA
# B1: H2Mab-214 antibody (antibody, V domains shown)
# VH: QVTLKESGPGILQPSQTLSLTCSFSGFSLSTSGMGVSWIRQPSGKGLEWLAHIFWDDDKRYNPSLKSRLTISKDTSRNKVFLKITSVDTADTATYYCARRVVATDWYFDVWGAGTTVTVSS
# VL: DIVLTQSPASLAVSLGQRATISCRASESVEYYGTTLMQWYQQKPGQPPKLLIYAASKVESGVPARFSGSGSGTDFSLNIHPVEEDDVAMYFCQQSRKVPLTFGAGTKLELKR
# notes: Mouse monoclonal from a hybridoma (immunogen HER2ec made in LN229 cells); also called antibody of the present invention
# B2: H2Mab-250 antibody (antibody, V domains shown)
# VH: EVQLVESGGGLVQPGGSLKLSCAASGFTFSNYGMSWVRQTPDRRLELVATINNNGGGTYYPDSVKGRFTISRDNAKNTLYLQMSSLKSEDTAMYYCTSPGLLWDAWGAGTTVTVSS
# VL: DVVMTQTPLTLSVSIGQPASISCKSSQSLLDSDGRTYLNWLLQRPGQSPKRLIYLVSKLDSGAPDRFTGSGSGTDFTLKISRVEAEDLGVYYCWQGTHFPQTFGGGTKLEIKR
# notes: as for B1
# How the values were obtained:
# [1] = molecular target: T1, HER2 peptide p603-622 (amino acids 603 …); assay: SPR Biacore, mAb on chip, peptide analyte, 1:1 fit; Table 2 (deletion mutants series)
# Description: (§1) Unreacted NHS esters were blocked with ethanolamine. […] All measurements were performed at 25° C. Measurement data were analyzed using a 1:1 binding model of BIAevaluation software (Cytiva) to determine a binding rate constant (ka), a dissociation rate constant (kd), and a dissociation constant (KD). For those in which ka or kd could not be determined, KD was determined using the equilibrium value analysis method of BIAevaluation software (Cytiva).
# [2] = molecular target: T2, HER2 peptide p611-618; assay: SPR Biacore, mAb on chip, peptide analyte, 1:1 fit;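 also: all binding measurements run at 25 °C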
# Description: as §1
# [3] = molecular target: T3, HER2 peptide p609-621; assay: SPR Biacore, mAb on chip, peptide analyte, 1:1 fit;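 also: all binding measurements run at 25 °C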
# Description: as §1
# [4] = molecular target: T4, HER2 peptide p610-621; assay: SPR Biacore, mAb on chip, peptide analyte, 1:1 fit;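 also: all binding measurements run at 25 °C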
# Description: as §1
# [5] = molecular target: T5, HER2 peptide p611-621; assay: SPR Biacore, mAb on chip, peptide analyte, 1:1 fit;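 also: all binding measurements run at 25 °C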
# Description: as §1
# [6] = molecular target: T6, HER2 peptide p612-619; assay: SPR Biacore, mAb on chip, peptide analyte, 1:1 fit;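 also: all binding measurements run at 25 °C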
# Description: as §1
# [7] = molecular target: T7, HER2 peptide p614-620; assay: SPR Biacore, mAb on chip, peptide analyte, 1:1 fit;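 also: all binding measurements run at 25 °C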
# Description: as §1
# [8] = molecular target: T8, HER2 peptide p610-618; assay: SPR Biacore, mAb on chip, peptide analyte, 1:1 fit
# Description: as §1
# [9] = molecular target: T9, HER2 peptide p609-622; assay: SPR Biacore, mAb on chip, peptide analyte, 1:1 fit
# Description: as §1
# [10] = molecular target: T10, HER2 peptide p611-620; assay: SPR Biacore, mAb on chip, peptide analyte, 1:1 fit
# Description: as §1
# [11] = molecular target: T11, HER2 peptide p613-619; assay: SPR Biacore, mAb on chip, peptide analyte, 1:1 fit
# Description: as §1
# [12] = molecular target: T12, HER2 peptide p609-618; assay: SPR Biacore, mAb on chip, peptide analyte, 1:1 fit
# Description: as §1
# [13] = molecular target: T13, HER2 peptide p610-619; assay: SPR Biacore, mAb on chip, peptide analyte, 1:1 fit
# Description: as §1
# [14] = molecular target: T14, HER2 peptide p611-622; assay: SPR Biacore, mAb on chip, peptide analyte, 1:1 fit
# Description: as §1
# [15] = molecular target: T15, HER2 peptide p610-620; assay: SPR Biacore, mAb on chip, peptide analyte, 1:1 fit
# Description: as §1
# [16] = molecular target: T16, HER2 peptide p612-620; assay: SPR Biacore, mAb on chip, peptide analyte, 1:1 fit
# Description: as §1
# [17] = molecular target: T17, HER2 peptide p613-620; assay: SPR Biacore, mAb on chip, peptide analyte, 1:1 fit
# Description: as §1
# [18] = molecular target: T18, HER2 peptide p609-619; assay: SPR Biacore, mAb on chip, peptide analyte, 1:1 fit
# Description: as §1
# [19] = molecular target: T19, D607A peptide (HER2 603-622 with D607A); assay: SPR Biacore, mAb on chip, peptide analyte, 1:1 fit;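 also: where kon or koff could not be resolved by kinetic fitting, Kd comes instead from steady-state equilibrium analysis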
# Description: as §1
# [20] = molecular target: T20, F616A peptide (HER2 603-622 with F616A); assay: SPR Biacore, mAb on chip, peptide analyte, 1:1 fit;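 also: where kon or koff could not be resolved by kinetic fitting, Kd comes instead from steady-state equilibrium analysis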
# Description: as §1
# [21] = molecular target: T21, K615A peptide (HER2 603-622 with K615A); assay: SPR Biacore, mAb on chip, peptide analyte, 1:1 fit;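 also: where kon or koff could not be resolved by kinetic fitting, Kd comes instead from steady-state equilibrium analysis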
# Description: as §1
# [22] = molecular target: T22, M611A peptide (HER2 603-622 with M611A); assay: SPR Biacore, mAb on chip, peptide analyte, 1:1 fit;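 also: where kon or koff could not be resolved by kinetic fitting, Kd comes instead from steady-state equilibrium analysis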
# Description: as §1
# [23] = molecular target: T23, A622G peptide (HER2 603-622 with A622G); assay: SPR Biacore, mAb on chip, peptide analyte, 1:1 fit
# Description: as §1
# [24] = molecular target: T24, W614A peptide (HER2 603-622 with W614A); assay: SPR Biacore, mAb on chip, peptide analyte, equilibrium analysis (ka N.D.)
# Description: as §1
binder,measurement,setting,value
B1,kon,[1],234000 M⁻¹ s⁻¹
same,Kd,[2],0.021 µM
same,koff,[2],0.0141 s⁻¹
same,kon,[2],669000 M⁻¹ s⁻¹
same,Kd,[3],0.00806 µM
same,koff,[3],0.00465 s⁻¹
same,kon,[3],577000 M⁻¹ s⁻¹
same,Kd,[4],0.00857 µM
same,koff,[4],0.00519 s⁻¹
same,kon,[4],679000 M⁻¹ s⁻¹
same,Kd,[5],0.0168 µM
same,koff,[5],0.00961 s⁻¹
same,kon,[5],571000 M⁻¹ s⁻¹
same,Kd,[6],0.0222 µM
same,koff,[6],0.0235 s⁻¹
same,kon,[6],1.06e+06 M⁻¹ s⁻¹
same,Kd,[7],41.2 µM
same,koff,[7],0.0152 s⁻¹
same,kon,[7],370 M⁻¹ s⁻¹
same,Kd,[8],0.0145 µM
same,koff,[8],0.0121 s⁻¹
same,kon,[8],837000 M⁻¹ s⁻¹
same,Kd,[9],0.00937 µM
same,koff,[9],0.00526 s⁻¹
same,kon,[9],561000 M⁻¹ s⁻¹
same,Kd,[10],0.0176 µM
same,koff,[10],0.00836 s⁻¹
same,kon,[10],475000 M⁻¹ s⁻¹
same,Kd,[11],1.61 µM
same,koff,[11],0.0136 s⁻¹
same,kon,[11],8450 M⁻¹ s⁻¹
same,Kd,[12],0.0143 µM
same,koff,[12],0.0107 s⁻¹
same,kon,[12],747000 M⁻¹ s⁻¹
same,Kd,[13],0.00574 µM
same,koff,[13],0.0051 s⁻¹
same,kon,[13],889000 M⁻¹ s⁻¹
same,Kd,[14],0.0239 µM
same,koff,[14],0.0108 s⁻¹
same,kon,[14],451000 M⁻¹ s⁻¹
same,Kd,[15],0.00868 µM
same,koff,[15],0.00502 s⁻¹
same,kon,[15],579000 M⁻¹ s⁻¹
same,Kd,[16],0.0237 µM
same,koff,[16],0.0179 s⁻¹
same,kon,[16],754000 M⁻¹ s⁻¹
same,Kd,[17],2.31 µM
same,koff,[17],0.01 s⁻¹
same,kon,[17],4340 M⁻¹ s⁻¹
same,Kd,[18],0.00576 µM
same,koff,[18],0.00449 s⁻¹
same,kon,[18],779000 M⁻¹ s⁻¹
B2,Kd,[19],0.00706 µM
same,koff,[19],0.00052 s⁻¹
same,kon,[19],73600 M⁻¹ s⁻¹
same,Kd,[20],0.204 µM
same,koff,[20],0.0108 s⁻¹
same,kon,[20],52800 M⁻¹ s⁻¹
same,Kd,[21],0.336 µM
same,koff,[21],0.00963 s⁻¹
same,kon,[21],28700 M⁻¹ s⁻¹
same,Kd,[22],0.00745 µM
same,koff,[22],0.000445 s⁻¹
same,kon,[22],59700 M⁻¹ s⁻¹
same,Kd,[23],0.00687 µM
same,koff,[23],0.000453 s⁻¹
same,kon,[23],65900 M⁻¹ s⁻¹
same,Kd,[24],1050 µM
